Measurements reported in the DeepSol protein solubility set.

Test: soluble on expression in E. coli; label from the status in PepcDB or PDB records

Row | Sequence | soluble on expression in E. coli
1 | MNRHSAGQSTPVRVATLDQLKPGVPTAFDVDGDEVMVVRDGDSVYAISNLCSHAEAYLDMGVFHAESLEIECPLHVGRFDVRTGAPTALPCVLPVRAYDVVVDGTEILVAPKEADHHHHHH | soluble
2 | MNRKGYKSGFVSIIGRPNVGKSTFLNRIIGQKIAIMSDKPQTTRNKIQGVYTENDSQVIFIDTPGIHKPKHKLGDFMVKMAQTTLKEVDIVLFMVNAVEGFGRGEEFIIEKLKETKQPVFLVINKIDQVHPEQLLELIDQYRKLHDFAEIVPISALDGNNAEALIGTIKKYLPEGPQYYPDNQVTDHPERFIIAELIREKVLHLTREEVPHSVAVVIDAIQKREGGAVYINATIVVERPSQKGIIIGKQGKMLKEVGKRARFDIEALLGSKVFLEVWVKVQKDWRNKMSQLRDLGFREDEY | not soluble
3 | MNRMMALVMAGGRGTRLAIDCEKPLLEVAGRPMIDHVLEALESATGVDGIIVVTSPHTPMTEDHVRGRHPIFRASGGGYVEDLREVLSHLEESYHEPLLVINSDLPLVRPSTIDWIISSYHSCPEPAMCVAVPDDLCRRHGLDFSGSLDGLVPCGVNILMSKNRVQEQRILEASMLELAVNINSCRDLKVLEKILGEIDGREEAHKRGREVLELEHHHHHH | soluble
4 | MNRNRLPALTPGLAWSRPMNGAVDHKGYEQPTYDLEFAETATEIRRYGPYLVAEVTMAGDRSTAITRGFRVLARYIFGGNAESRRIEMTVPVSQLPAGEDLWTVRFTMPAVRSASLLPAPKDSRIRFVTVPPSRQAVRRFSGWPTDHALRRQAEGLAHWIAERGLPKREGPYFYFYDSPMTLPWQRRNEVAFGLGEGAAALEHHHHHH | not soluble
5 | MNRSLANVILGGYGTTSTAGGKPMEISGTHTEINLDNAIDMIREANSIIITPGYGLCAAKAQYPIADLVKMLTEQGKKVRFGIHPVAGRMPGQLNVLLAEAGVPYDIVLEMDEINHDFPDTDLVLVIGANDTVNSAAQEDPNSIIAGMPVLEVWKSKQVIVMKRSLGVGYAAVDNPIFYKPNTAMLLGDAKKTCDALQAKVRESYQK | soluble
6 | MNRTIDRSVPKLGVRSTRQRTAVVGVLKDLDYFASAKVIHQELTKRDLKVGLTTVYRTLQSLSEIEAVDVLHMSNGETLYRHCLSDEHHHHLVCTECGRTVEIDGGPVEKWAKEVAQLHGFQVTGHDAEIYGLCESCSAATE | not soluble
7 | MNRYDRAITIFSPDGHLFQVEYAQEAVKKGSTAVGVRGKDCIVIGVEKKSIPALQDDRTIRKIHMIDDHVMLAFAGLSADARVLVDRARIECQSYKLTLEDPVTVAYISRYIANTKQRFTQSPGRRPFGISMLIGGFDHDGTPRLFKTEPSGAYYEYVANATGRGEKPVREYLEEQYSEENTVDEATTLKLVVKSLAQVVPPGSQNIEIAVMKKVNDELQQRVLSTEEIEALLKVVETERVAAEAEEAASKKK | not soluble
8 | MNSCNRLPCAHEVLAVFAHPDDESFGLGAVLGDFTAQGTRLRGLCFTHGEASTLGRTDRNLGEVRREELAAAAQVLGVDHVQLLAYPDNGLAQIPLNELTQRVVDALAGADLLLVFDDNGVTGHPDHRRATEAALAAASTPSIPVLAWALPQPIADRLNAEFSASFGGRGHGHLDIMIEVDRSRQLAAIGCHFTQSADNPVLWRRLELLGDREYLRWLRRSVP | soluble
9 | MNSLLRLSHLAGPAHYRALHSSSSIWSKVAISKFEPKSYLPYEKLSQTVKIVKDRLKRPLTLSEKILYGHLDQPKTQDIERGVSYLRLRPDRVAMQDATAQMAMLQFISSGLPKTAVPSTIHCDHLIEAQKGGAQDLARAKDLNKEVFNFLATAGSKYGVGFWKPGSGIIHQIILENYAFPGLLLIGTDSHTPNGGGLGGLCIGVGGADAVDVMADIPWELKCPKVIGIKLTGKLNGWTSAKDVILKVADILTVKGGTGAIVEYFGPGVDSISATGMGTICNMGAEIGATTSVFPYNESMYKYLEATGRKEIAEEARKYKDLLTADDGANYDQIIEINLDTLTPHVNGPFTPDLASSIDKLGENAKKNGWPLDVKVSLIGSCTNSSYEDMTRAASIAKQALDKGLKAKTIFTITPGSEQVRATIERDGLSKIFADFGGMVLANACGPCIGQWDRQDVKKGEKNTIVTSYNRNFTGRNDANPATHGFVTSPDITTAMAISGRLDFNPLTDELTAADGSKFKLQAPTGLDLPPKGYDPGEDTFQAPSGSGQVDVSPSSDRLQLLSPFDKWDGKDLEDMKILIKVTGKCTTDHISAAGPWLKYRGHLDNISNNLFLTAINADNGEMNKVKNQVTGEYGAVPATARKYKADGVRWVAIGDENYGEGSSREHAALEPRHLGGRAIIVKSFARIHETNLKKQGMLPLTFANPADYDKIDPSDNVSIVGLSSFAPGKPLTAIFKKTNGSKVEVTLNHTFNEQQIEWFKAGSALNRMKEVFAKSK | soluble
10 | MNSLRPELLELTPQALTALSNAGFVKRSLKELENGNVPEISHENSALIATFSDGVRTQLANGQALKEAQCTYGASGMCRHRVMLVLSYQRLCATAQPTGKEEEWDPAIWLEELATLPDATRKRAQALVAKSITIELFCAPGEIPSARLPMSDVRFYSRSSIRFARCDCIEGTLCEHVVLAVQAFVQAKAQQAELTHLIWQMRSEHVTSSDDPFASEEGKTCRQYVQQLSQALWLSGISQPLIHYEAAFSRAQQAAERCSWRWVSESLRQLRASVDAFHARASHYHAGECLRQLAALNSRLNCAQEMARSDSVGEVPPVPWRTVVGSGIAGEAKLDHLRLVSLGMRCWQDIEHYGLRIWFTDPDTGSILHLSRSWPRSEQEDSPAATRRLFSFQAGALAGGQIVSQAAKRSADGELLLATRNRLSSVVPLSPDAWQMLSAPLRQPGIVALREYLRQRPPACIRPLNQVDNLFILPVAECISLGWDSSRQTLDAQVISGEGEDNLLTLSLPASASAPYAIERMAALLQQTDDPVCLVSGFVSFVDGQLTLEPQVMMTKTRAWALDAETAPVVVSLPSASVLPVPSTAHQLLMRCQALLIQLLHNGWRYQEQSAINQAELLANDLTAVGFYRLAHVLAQFRNTESEARVEAMNNGVLLCEQLFPMLQQQG | not soluble
11 | MNSTHHYEQLIEIFNSCFADDFNTRLIKGDDEPIYLPADAEVPYNRIVFAHGFYASAIHEISHWCIAGKARREQVDFGYWYCPDGRDAQTQSQFEDVEVKPQALDWLFCVAAGYPFNVSCDNLEGDFEPDRVVFQRRVHAQVMDYLTNGIPERPARFIKALQNYYHTPELTAEQFPWPEALN | soluble
12 | MNSYPLISVIMSVYKEEREWLVSSIQSILDQTVSDFEFIIILDFPNSELLKTLKDFEKKDSRIIIYQNEKNVGLVESLNTALSFSRGKYIARMDADDISHKNRFEKQLKYITLNNLDLVGGNVNIFHSNKGIYNTTDKVQSDYFLCKLLKIGTIGIVHPTFFSKRNVYDTIGGYYHAECAEDLELLMRANLNGFKIGNIPDVILDCRYSEKSITKENAYFMFCTVKYLKSLYRSSLKSGDYKFNSNYIELYLYDENNKLAFSEKQNLMSEARHSFNEKKYISFLINLIKSILISRTVFFSIKVNVMSFLFRKVEVKIPKVLLACIKIKLQLEHHHHHH | soluble
13 | MNTAQLTSKQTLSYVEQTALVLLGMGEDAAAKVLQHFTRDETQRVTRAMAKLNGIKSDSARGVIQNFFEDFREHSGIRGASKEYLSNTLRKALGNDLAKGLLNNLYGDEIRNNMQRLQWVEAETLARFIVNEHPQMQAIFLAYLPADSSSAVLKHLPQDYHDEIIFRIAQLQDIDHQVATDLHELVERCIEKVSASQSVPLSGVKQAADIINRFEGDRGSLMEMLKLHDEEVVNAIEEN | not soluble
14 | MNTAVKAAVAAALVMGVSSFANAAGSNTGTVTFTGTIEDSPCSIVVGDEHQTVNLGHIGTGSLMGGKESSKVDFHIGLENCAFTTEKEASTVFSAIGNESSANPGSVALMRIGGGEMAGSSIVIGNHLGSAIKLGDAYSENLTMNGSVAAAKQTLNFKAWVKGDSAATTIDTGEFSSTVNFTISYL | not soluble
15 | MNTEEQPVTASLVAEAQRLDFLPTYFGPRLMMRGEALVYAWMRRLCERYNGAYWHYYALSDGGFYMAPDLAGRLEIEVNGNGFRGELSADAAGIVATLFALGQLAAEIADTDAADALIDRYHFLRGFAAGHPEAAAIYRAID | soluble
16 | MNTGEMKINWVSRYMPLLNKIAEEYSREKPLSGFTVGMSIHLEAKTAYLAITLSKLGAKVVITGSNPLSTQDDVAEALRSKGITVYARRTHDESIYRENLMKVLDERPDFIIDDGGDLTVISHTEREEVLENLKGVSEETTTGVRRLKALEETGKLRVPVIAVNDSKMKYLFDNRYGTGQSTWDAIMRNTNLLVAGKNVVVAGYGWCGRGIALRAAGLGARVIVTEVDPVKAVEAIMDGFTVMPMKEAVKIADFVITASGNTDVLSKEDILSLKDGAVLANAGHFNVEIPVRVLEEIAVEKFEARPNVTGYTLENGKTVFLLAEGRLVNLAAGDGHPVEIMDLSFALQIFAVLYLLENHRKMSPKVYMLPDEIDERVARMKLDSLGVKIDELTEKQRRYLRSWQ | soluble
17 | MNTKCLREKIEKIKPHLLKTASDTLQGYVFGCMIGVFSSSEKPSLRHVHESGKSFAKVSMIYSTTESALQLYGSKNAPLNSLISGAVAGGLGVNDRSKKSILTGAASFGLYTGMSNIFSVQGQK | not soluble
18 | MNTKFLGKTLVASALVLTTLGTGLHSSYLGLDTNKVVKTAKAEEKMTDGQLWKKVKDSLHDSDIILSNEYETINVTYLLSNGYSSSVSAPGNDDGGHLTQSIDFKGLKQIDLTKENVYDDFNKKLDAKNTWNSLTEKLKGLGLLQNGQKVSIYSSDSSSPVSGKVGEGVTSGGENTLTKRFINKITID | not soluble
19 | MNTPSRTHLVIIPSYNPGPKVYETVQAARRYWNPVWVVVDGSTDGTWEGLLKLSAEDSGLVVLGMPANRGKGAAVLRGLLTSRRKGFTHALVMDSDGQHPADRIPEFMARSQEEPDAMILGVPVFDDSAPSLRVKGRRISNWWANLETLWCGIGDSLFGFGVYPIQALCVIMQDHQWMRRFDFDPEAAVRLCWAGIRPVNLPVPVYYPKPEEGGTSHFHYWRDNALLTWMHVRLMFGFLARLPILLARIVRRPEILEHHHHHH | not soluble
20 | MNTQFSCVGCGKCCNDHHVPLTLLEARDWAADGGQVIILVEAFLGNGLGLPMQQREHAERRSCRVRSGATEAYVAITFAAYNVGPCRNLDEDQLCRIYQRRPLVCRIYPMEINPHIPLNPQAKECPPESWEQGPQLILGNELVDQELAELIRRSRQADRDDIHTKEAICALLGIRTTALKGDGFTAYLPDMGALANAIDQVQAAPPGAPGQPWRFHLSGDDIAGQVQAAGAQVVSETPLDYAFISLRAALEHHHHHH | soluble
21 | MNTRTIYLAGGSFWGLEAYFQRIDGVVDAVSGYANGNTKNPSYEDVSYRHTGHAETVKVTYDADKLSLDDILQYFFRVVDPTSLNKQGNDTGTQYRSGVYYTDPAEKAVIAAALKREQQKYQLPLVVENEPLKNFYDAEEYHQDYLIKNPNGYCHIDIRKADEPLPGKTKTAPQGKGFDAATYKKPSDAELKRT | soluble
22 | MNTTDRQITFSALSCLLSYPDEEWRAELPDWKALIQEIGNRQIREKLLHFFETSASYSPEALIEHYVYTFDFGKKTNMYVTYFNSGEQRERGIELLHLKNTYEQSGFLPTEKELPDYLPLMLEFAAAAEIEAARSVFEKYLSNVRELASRLEKNDSIYAELLHVLLAALENIGVRESVEGAVQALEHHHHHH | not soluble
23 | MNTTQRADQQTSADRRRRELLEAADRVVLRDGPHASMNAIAAEAGITKPILYRHFGDKGGLYAALAVRHTDALLASLRAALDAPAQRRQRVEATLDTYLAAIEARPQVYRFLMHPAESAGTPGDQSEQGFDVGKHSAPLLRRMGEELAQVIEERLDVGPGTQQLARVWGHGIVGMMHAAGDWWLGERPCPREELVRTLADLLWGRLAEAGDKEGGPGF | not soluble
